The text below walks through data of paper PMC10343800, “A Novel LSTM-Based Machine Learning Model for Predicting the Activity of Food Protein-Derived Antihypertensive Peptides” (Molecules, 2023).

One may read the IC50 as the concentration that gives 50% inhibition.

Assay [1] addresses T1, ACE (Homo sapiens, UniProt P12821). Description: biochemical. As for the experimental part:
An online tool (https://www.genscript.com/sms2/random_protein.html accessed on 1 March 2023) was used to randomly generate peptides in order to test the efficiency of the model. The top peptides with a small number of IC50 values were selected for synthesis. […] The peptides used for validation were synthesized by Genescript with a purity > 97%. The ACE inhibitory assay was performed according to a previous study with modifications. ACE, N-hippuryl-His-Leu tetrahydrate (HHL, Sigma-Aldrich, St. Louis, MI, USA) and the peptide samples were dissolved in 100 mM of boric acid containing 300 mM of NaCl (pH8.3). Firstly, 10 μL of the peptide solution was preincubated with 50 μL of 6.5 mM HHL at 37 °C for 5 min. Then, 5 μL of 0.1UN/mL ACE (preincubated at 37 °C) was added to the reaction system and incubated at 37 °C for another 30 min. The reaction was terminated by adding 85 μL of 1 M HCl. The concentration of hippuric acid (Hip, the reaction product) was measured by HPLC with a C18 column (5 µm, 250 mm × 4.6 mm). The sample (20 μL) was eluted by a gradient of solvent A (H2O with 0.05% TFA) and solvent B (acetonitrile with 0.05% TFA) at a flow rate of 1.2 mL/min. The absorbance at 228 nm was monitored. The concentration of HA was calculated based on its standard curve. The area under each peak was calculated, in which A = the area under the peak of the blank group (without the peptide) and B = the area under the peak of the peptide group. The ACE inhibitory ratio = (A − B)/A. The ACE inhibitory ratio of each peptide at different concentrations was measured.

Assay [2] deals with T1, ACE. The conditions noted are these: in vitro ACE inhibition; read-out: Reported IC50; cited from earlier work.
The mark [3] stands for this setting: 6.5 mM HHL, 0.1 UN/mL ACE, 100 mM boric acid with 300 mM NaCl pH 8.3, 37 °C, 5 min preincubation, 30 min incubation, hippuric acid by HPLC C18, 228 nm, read-out: Experimental IC50.

Read-outs that look alike come from different tables or passages of the source. Ends that are not written are not given here. Peptide text beside a SMILES is read from it.

T1 sequence (P12821 30-1306, species assumed): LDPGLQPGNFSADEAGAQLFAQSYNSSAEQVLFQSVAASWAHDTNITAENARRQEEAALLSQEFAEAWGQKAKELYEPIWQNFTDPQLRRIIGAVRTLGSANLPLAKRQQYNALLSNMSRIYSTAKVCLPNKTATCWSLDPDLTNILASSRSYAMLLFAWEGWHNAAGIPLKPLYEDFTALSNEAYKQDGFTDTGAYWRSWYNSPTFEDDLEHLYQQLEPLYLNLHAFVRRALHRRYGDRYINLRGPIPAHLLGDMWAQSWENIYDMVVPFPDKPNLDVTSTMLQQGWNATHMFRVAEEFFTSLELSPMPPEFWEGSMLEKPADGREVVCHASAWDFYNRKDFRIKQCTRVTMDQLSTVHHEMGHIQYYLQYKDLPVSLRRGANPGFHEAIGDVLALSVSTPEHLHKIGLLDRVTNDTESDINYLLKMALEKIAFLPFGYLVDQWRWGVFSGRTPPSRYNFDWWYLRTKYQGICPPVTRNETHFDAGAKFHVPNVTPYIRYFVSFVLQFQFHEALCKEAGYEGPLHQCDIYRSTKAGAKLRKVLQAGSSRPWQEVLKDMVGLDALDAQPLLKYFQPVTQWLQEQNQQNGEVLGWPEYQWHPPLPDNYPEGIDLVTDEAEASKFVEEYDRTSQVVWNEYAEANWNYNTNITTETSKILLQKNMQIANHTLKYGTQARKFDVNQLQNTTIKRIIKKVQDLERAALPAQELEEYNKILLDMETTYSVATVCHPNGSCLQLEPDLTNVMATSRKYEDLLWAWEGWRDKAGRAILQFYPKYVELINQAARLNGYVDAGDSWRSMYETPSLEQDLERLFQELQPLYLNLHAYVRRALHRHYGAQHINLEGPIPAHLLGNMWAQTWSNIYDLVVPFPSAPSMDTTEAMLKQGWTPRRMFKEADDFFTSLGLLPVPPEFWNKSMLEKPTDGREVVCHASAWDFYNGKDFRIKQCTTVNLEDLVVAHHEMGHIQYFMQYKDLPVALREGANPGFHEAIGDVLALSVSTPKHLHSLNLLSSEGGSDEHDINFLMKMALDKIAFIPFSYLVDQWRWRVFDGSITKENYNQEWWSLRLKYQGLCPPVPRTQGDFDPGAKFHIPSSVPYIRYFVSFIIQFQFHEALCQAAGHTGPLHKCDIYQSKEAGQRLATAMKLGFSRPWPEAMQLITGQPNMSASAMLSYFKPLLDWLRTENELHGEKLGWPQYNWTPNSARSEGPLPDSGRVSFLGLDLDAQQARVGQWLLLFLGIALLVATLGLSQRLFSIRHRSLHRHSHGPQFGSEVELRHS

Take `CC(C)C[C@H](NC(=O)[C@H](C)N)C(=O)N1CCC[C@H]1C(=O)N[C@@H](CC(=O)O)C(=O)O` [ALPD] (H-ALPD-OH): the IC50 against ACE [1] was determined as 1.55 µM.
Same read-out and setting: then `C[C@H](NC(=O)[C@H](CCCCN)NC(=O)[C@H](CC(=O)O)NC(=O)[C@@H](N)Cc1ccccc1)C(=O)O` [FDKA] (H-FDKA-OH), with 0.6 µM; and `CC[C@H](C)[C@H](NC(=O)[C@@H](N)Cc1ccccc1)C(=O)O` [FI] (H-Phe-Ile-OH), with 0.31 µM.
Turning to `C[C@H](NC(=O)[C@@H]1CCCN1C(=O)CN)C(=O)N[C@@H](Cc1ccc(O)cc1)C(=O)O` [GPAY] (H-GPAY-OH), it took 0.37 µM to reach half-maximal inhibition at ACE [1] (IC50).
Still for that read-out and setting: then `CC(C)[C@H](NC(=O)CN)C(=O)N1CCC[C@H]1C(=O)N[C@@H](CCCCN)C(=O)O` [GVPK] (H-GVPK-OH), with 0.25 µM; and `N=C(N)NCCC[C@H](NC(=O)[C@H](Cc1c[nH]cn1)NC(=O)[C@H](CC(=O)O)NC(=O)[C@@H](N)Cc1c[nH]cn1)C(=O)O` [HDHR] (H-HDHR-OH), with 0.59 µM.
Regarding `CC(C)C[C@H](NC(=O)[C@H](CCCCN)NC(=O)[C@@H](N)CC(C)C)C(=O)O` [LKL] (H-Leu-Lys-Leu-OH), on ACE [1] (setting [3]), the IC50 is 0.56 µM.
On ACE [1], `CC[C@H](C)[C@H](NC(=O)[C@@H]1CCCN1C(=O)[C@H](CCCCN)NC(=O)[C@@H](N)CC(C)C)C(=O)O` [LKPI] (H-LKPI-OH) came in with an IC50 of 0.39 µM.
Still for that read-out and setting: then `CC(C)C[C@H](NC(=O)[C@@H](NC(=O)[C@@H](N)CC(C)C)C(C)C)C(=O)O` [LVL] (H-Leu-Val-Leu-OH), with 0.32 µM.
On to `N[C@@H](Cc1c[nH]c2ccccc12)C(=O)N[C@@H](CC(=O)O)C(=O)O` [WD] (H-Trp-Asp-OH), for which the IC50 at ACE [1] (setting [3]) came to 0.51 µM.
On to AFVGYVLP, for which, in the assay with ACE [2], the IC50 is 14.4 µM.
Regarding CTFSIPAQC, the IC50 in the assay with ACE [2] was 24.4 µM.
Regarding DAQSAPLRVY, the IC50 with ACE [2] is 12.2 µM.
Regarding DKVGINYW, in the assay with ACE [2], the IC50 was 25.4 µM.
Take EKSYELP: the IC50 in the assay with ACE [2] was 18 µM.
FALPC [FALPC] registered a concentration for half-maximal inhibition (IC50) against ACE [1] of 0.16 µM.
In the case of GAAELPCSADWW, the IC50 in the assay with ACE [2] was 11 µM.
Regarding HLNVVHGN, the IC50 in the assay with ACE [2] is 50.9 µM.
For the compound IISKIK, the IC50 with ACE [2] was 1.19 µM.
As to ILSKLK, in the assay with ACE [2], the IC50 is 4.02 µM.
Regarding IPPAYTK, in the assay with ACE [2], the concentration for half-maximal inhibition (IC50) was 23.5 µM.
The compound IQWCA [IQWCA] came in with an IC50 against ACE [1] of 0.1 µM.
With KGYGGVSLPEW, the IC50 in the assay with ACE [2] is 0.7 µM.
With KIDKVVK, the IC50 with ACE [2] is 0.62 µM.
As to KLPAY [KLPAY], the midpoint of inhibition against ACE [1], the IC50, lay at 0.12 µM.
On to LDSPSEGRAPG, for which, in the assay with ACE [2], the IC50 was 17.9 µM.
As for LEEFCC, the IC50 in the assay with ACE [2] is 1.85 µM.
Consider LKPDQ [LKPDQ], for which the IC50 on ACE [1] stood at 0.88 µM.
The same measure, in the same setting: the same measure for LKPNS [LKPNS]: 0.5 µM.
For LLVTLKK, the IC50 with ACE [2] is 0.95 µM.
With LRLESF, the IC50 with ACE [2] was 5.39 µM.
Turning to LVLPGE, the IC50 with ACE [2] was 13.5 µM.
In the case of LVLPGELAK, the IC50 in the assay with ACE [2] was 184 µM.
As for MLPAY, the IC50 with ACE [2] is 1.58 µM.
PAGELHP: in the assay with ACE [2], the IC50 was 0.5 µM.
At ACE [1], PDFLI [PDFLI] registered an IC50 of 0.33 µM.
In the case of PGSGCAGTDL, the IC50 with ACE [2] is 57.9 µM.
Turning to PLPLL [PLPLL], 0.2 µM corresponded to half-maximal inhibition on ACE [1] (IC50).
Take RDGGYCC: the IC50 with ACE [2] was 0.84 µM.
As for TFQGGlPPHGIQVER (TFQGGPPHGIQVER), the concentration for half-maximal inhibition (IC50) with ACE [2] was 3.4 µM.
Turning to TVTNPARIA, in the assay with ACE [2], the IC50 was 14.5 µM.
Compound VAWKL [VAWKL] showed an IC50 against ACE [1] of 0.23 µM.
For VDSDVVK, the IC50 in the assay with ACE [2] is 8.64 µM.
For VELYP, the IC50 in the assay with ACE [2] is 5.22 µM.
The compound VHLAP [VHLAP] gave an IC50 on ACE [1] of 0.33 µM.
With VISDEDGVTH, the IC50 with ACE [2] is 8.16 µM.
Regarding VYHEL [VYHEL], the IC50 against ACE [1] was 0.38 µM.
Turning to WQVLPNAVPAK, the IC50 with ACE [2] is 1010 µM.
